In patent US20230002499A1, “METHODS OF CANCER TREATMENT WITH ANTI-OX40 ANTIBODY IN COMBINATION WITH CHEMOTHERAPEUTIC AGENTS” (BeiGene (Beijing) Co., Ltd., priority 2019, published 2023):

T1: full-length human OX40 expressed on HuT78/OX40 cells (human, UniProt P43489 29-277)
T1 sequence: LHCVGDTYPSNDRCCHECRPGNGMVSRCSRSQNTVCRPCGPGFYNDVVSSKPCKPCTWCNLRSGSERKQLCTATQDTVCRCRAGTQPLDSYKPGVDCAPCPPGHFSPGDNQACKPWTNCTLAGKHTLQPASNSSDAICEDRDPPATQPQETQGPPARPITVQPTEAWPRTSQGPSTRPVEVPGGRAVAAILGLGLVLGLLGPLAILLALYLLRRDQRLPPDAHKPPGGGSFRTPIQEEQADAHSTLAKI


Experiments:
[1] = molecular target: T1, full-length human OX40 expressed on …; experiment: flow cytometry on live HuT78/OX40 cells; top of fitted curve
Experimental: To evaluate the binding activity of anti-OX40 antibodies to bind OX40 expressed on the surface of live cells, HuT78 cells were transfected with human OX40 as described in Example 1 to create an OX40 expressing line. Live HuT78/OX40 cells were seeded in 96-well plate and were incubated with a serial dilution of various anti-OX40 antibodies. Goat anti-Human IgG-FITC (Cat: A0556, Beyotime) was used as a secondary antibody to detect antibody binding to the cell surface. EC₅₀ values for dose-dependent binding to human OX40 were determined by fitting the dose-response data to the four-parameter logistic model with GraphPad Prism.

[2] = test system: CT26WT cells, a murine colon carcinoma cell line; experiment: CT26WT syngeneic mouse model, OX86 in combination with Oxaplatin/5-Fu; format: in vivo; conditions: OX86 0.08 mg/kg QW i.p.; Oxaplatin 1.5 mg/kg QW i.p.; 5-Fu 15 mg/kg once daily five days per week i.p.
Experimental: Female BALB/c mice were subcutaneously implanted with 1×10^5 CT26WT cells, a murine colon carcinoma cell line, in 150 μL PBS in the right flank. After inoculation, the mice were randomized into 4 groups with 20 animals in each group. Mice were treated with vehicle as a control.
OX86 is a rat anti-mouse OX40 antibody previously disclosed in WO2016/057667, which was further engineered with mouse IgG2a constant regions in order to reduce its immunogenicity and also keep its Fc-mediated functions in mouse studies. The VH and VL regions of OX86 are provided below. […] As monotherapy, OX86 was administered at 0.08 mg/kg once per week (QW) by intraperitoneal (i.p.) injection.
Oxaplatin/5-Fluorouracil (5-Fu) was administered as a single agent to the mice. The OX86 antibody in combination with Oxaplatin/5-Fu was administered as combination therapy. OX86 (0.08 mg/kg) was administered once per week by intraperitoneal (i.p.) injection. Oxaplatin (1.5 mg/kg) was also dosed once per week (QW) intraperitoneally, and 5-Fu was given at 15 mg/kg once daily for five consecutive days per week by i.p. injection. […] Tumor volume was determined twice weekly in two dimensions by using a caliper and was expressed in mm^3 using the formula: V=0.5(a×b^2) where a and b are the long and short diameters of the tumor, respectively. […] Tumor growth inhibition (TGI) is calculated using the following formula: […]

| Molecule | Top (MFI), Mean [1] | Mean Tumor Volume on Day 11 (Mean ± SEM) [2] | TGI (%) on Day 11 [2] |
| --- | --- | --- | --- |
| ch445 (antibody, V domains shown) VH: EVQLQQSGPELVKPGASVKMSCKASGYKFTSYIIHWVKQKPGQGLEWIGYINPYNDGTRYNEKFKGKATLTSDKSSSTAYMEYSSLTSEDSAVYYCARGYYGSSYAMDYWGQGTSVTVSS VL: DIQMTQTTSSLSASLGDRVTISCSASQGISNYLNWYQQKPDGTIKLLIYDTSTLYSGVPSRFSGSGSGTDYFLTISNLEPEDIATYYCQQYSKLPYTFGGGTKLEKK | 725 MFI | – | – |
| OX86: rat anti-mouse OX40 antibody disclosed in WO2016/057667, engineered with mouse IgG2a constant regions; VH SEQ ID NO: 32, VL SEQ ID NO: 33 (antibody, V domains shown, mouse IgG2a constant regions) VH: QVQLKESGPGLVQPSQTLSLTCTVSGFSLTGYNLHWVRQPPGKGLEWMGRMRYDGDTYYNSVLKSRLSISRDTSKNQVFLKMNSLQTDDTAIYYCTRDGRGDSFDYWGQGVMVTVSS VL: DIVMTQGALPNPVPSGESASITCRSSQSLVYKDGQTYLNWFLQRPGQSPQLLTYWMSTRASGVSDRFSGSGSGTYFTLKISRVRAEDAGVYYCQQVREYPFTFGSGTKLEIK | – | 969.2 ± 229.0 mm^3 | 48% |
| 445-2 (antibody, human IgG1, V domains shown) VH: QVQLVQSGAEVKKPGSSVKVSCKASGYKFTSYIIHWVRQAPGQGLEWMGYINPYNEGTRYAQKFQGRVTLTADKSTSTAYMELSSLRSEDTAVYYCARGYYGSSYAMDYWGQGTTVTVSS VL: DIQMTQSPSSLSASVGDRVTITCSASQGISNYLNWYQQKPGKAIKLLIYDASTLYSGVPSRFSGSGSGTDFTLTISSLQPEDFATYYCQQYSKLPYTFGGGTKVEIK | 620 MFI | – | – |
| 445-1 (antibody, IgG1, V domains shown, Full-length antibody with human wild-type IgG1 (IgG1wt) and kappa constant regions) VH: QVQLVQSGAEVKKPGSSVKVSCKASGYKFTSYIIHWVRQAPGQGLEWMGYINPYNDGTRYNQKFQGRVTLTSDKSTSTAYMELSSLRSEDTAVYYCARGYYGSSYAMDYWGQGTTVTVSS VL: DIQMTQSPSSLSASVGDRVTITCSASQGISNYLNWYQQKPGKAIKLLIYDTSTLYSGVPSRFSGSGSGTDYTLTISSLQPEDFATYYCQQYSKLPYTFGGGTKVEIK | 525 MFI | – | – |
| 445-3 IgG4 (antibody, V domains shown) VH: QVQLVQSGAEVKKPGSSVKVSCKASGYKFTSYIIHWVRQAPGQGLEWMGYINPYNEGTRYNQKFQGRVTLTADKSTSTAYMELSSLRSEDTAVYYCARGYYGSSYAMDYWGQGTTVTVSS VL: DIQMTQSPSSLSASVGDRVTITCRASQGISNYLNWYQQKPDGAIKLLIYDASTLYSGVPSRFSGSGSGTDFTLTISSLQPEDFATYYCQQYSKLPYTFGGGTKVEIK | 892 MFI | – | – |
| 445-3 (antibody, human IgG1, V domains shown, Human IgG1 wild type format) VH: QVQLVQSGAEVKKPGSSVKVSCKASGYKFTSYIIHWVRQAPGQGLEWMGYINPYNEGTRYNQKFQGRVTLTADKSTSTAYMELSSLRSEDTAVYYCARGYYGSSYAMDYWGQGTTVTVSS VL: DIQMTQSPSSLSASVGDRVTITCRASQGISNYLNWYQQKPDGAIKLLIYDASTLYSGVPSRFSGSGSGTDFTLTISSLQPEDFATYYCQQYSKLPYTFGGGTKVEIK | 910 MFI | – | – |
